Assay: soluble on expression in E. coli; label from the status in PepcDB or PDB records

**Q.** For “MGSDKIHHHHHHMRGIGLTHAFADISGLAFDRLFMVTETDGTFITARQFPQMVKFIPAPLHDGLHLSAPDGSSAVVRFSDFATQAEPTEVWGNHFTALIAPAAVNQWLSGFFKRDVQLRWLGPQLTRRVKRHDAVPLSFADGYPYLLANEASLRDLQQRCPASVSIEQFRPNLVVTGAAAWDEDSWKVIRIGEVVFDVAKPCSRCIFTTISPERGQKHPAGEPLETLKRFRTALDNGDVDFGQNLIARNSGVIRVGDEVEILTRGPAKAYGAGESDDTPAPEAQQQATVAIEWQGQQFTGNNQQVLLEQLEQQGIRVPYSCRAGICGSCRIRLEEGEVSPLKKNAVAGDGTILACSCVPKTALRLAP”, which “soluble on expression in E. coli” value is on record?
**A.** The value was “not soluble”.

**Q.** With “MGSDKIHHHHHHMRHENRVAWTEGMFLRVQHFQQSDRWTERLVRSVARSLTPYPWGILEIGLDRSALAIGQFALSGLRGMLPDGTPFDAPEDTDLPAALELDESVKNAVIYLALPARQPGKADMAQTGTSAVNSVRLVASPYEAPDANVETDFLAPIDVGRLNLKLLKTGDDLAGYELLGLARVVEVRSDKAVLLDPDFIPASLNCTASSRLHELMTELLGIVRHRAEAIAERIGDPTIRGTAEVGDYFLLQILNRADPLLKHALSNATRLHPIQFYEQCIQLAGELATFTMESKRATDFPAYRHDDLKATFGAVFEDLRTSLSSVLAQSAVAIELVERRHGVRVGTINDRSLLRDAGFVLAVRADMSAEDVRRTLPARIKVGPVERIAELVNVALPGIPVRPLPVLPRQLPYRAGTIYFELDTKTPLWKQLETSGAIALHLAGDFPGLELEMWALRE” as the sequence, how does the “soluble on expression in E. coli” value read?
**A.** Its value is “not soluble”.

**Q.** With “MGSDKIHHHHHHMRHTILFIIDGLPGGGAERVVITLAGEMAARGHQVTIASLQASLDYAIPAGVDYLLVEDRYRGPLRRQTEIRRRARQLDGALRRHFAGRRIDLAVSNLPKTDRIVAACPYLEQAWLCLHCAIQAGQLAERSGIRRWLKKRQLVRTYSGRKLITVCQALQRDVLDCGIRPARMEAIYNPFDLDWIRRRAAQPCPMDGEDFILHVGRFNHQKRHDRLLEAFKLSGYPGKLALLGQGGQAELSAIQVQAERLGVADRLVVAGFTDNPYAYMRAARALVLSSDYEGFGNVLVEALACGTPVASTNCPEGPAEILTGPLSIGLSELNGQALADAIKRVLASRPLAGPEQLAAFAQDAVVERYLALVNQ” as the sequence, how does the “soluble on expression in E. coli” value read?
**A.** The value was “not soluble”.

**Q.** With “MGSDKIHHHHHHMRILTFTGKGGVGKTSVSAATAVRLSEMGHRTLVLSTDPAHSLSDSFNIQLGAEPTKIKENLHAIEVNPYVDLKQNWHSVQKYYTRIFMAQGVSGVMADEMTILPGMEELFSLLRIKRYKSAGLYDALVLDTAPTGETLRLLSLPDTLSWGMKAVKNVNKYIVRPLSKPLSKMSDKIAYYIPPEDAIESVDQVFDELEDIREILTDNVKSTVRLVMNAEKMSIKETMRALTYLNLYGFKVDMVLVNKLLDAQENSGYLEKWKGIQQKYLGEIEEGFSPLPVKKLKMYDQEIVGVKSLEVFAHDIYGDTDPSGMMYDEPPIKFVRQGDVYEVQLKLMFANPVDIDVWVTGDELFVQIGNQRKIITLPVSLTGLEPGDAVFKDKWLHIPFDLEKQGQHHRTREYNKA” as the sequence, how does the “soluble on expression in E. coli” value read?
**A.** Its value is “not soluble”.

**Q.** Which “soluble on expression in E. coli” value does the source give for “MGSDKIHHHHHHMRKVVEVSGVRKSFGELRVLDKVDFYAEEGDFKVIVGENGSGKSTLLKIMIGLLLPDDGEVKVLGVDVKKHWKKLSARIGVVLANERSLYWKLTAWENLDIFGGVYGVPKKVRRERMEELLKRFGLFEYKDKPVEEFSTGMRKKLMICKALIHDPEVLFIDEILNGLDPPSVREMVGFLDERNRRGLTIVMISHVLHVLPENACVVLLRNGRVQMEVRYKDIRSERSEVYEVFENLIRGRNMDEEDTPSGSEGDEDKA” here?
**A.** Its value is “not soluble”.

**Q.** With “MGSDKIHHHHHHMRLIGLTDLHNRIINFDKLLRYKPDAILISGDFTKCSFAKSANQNDSFEVITEQDTRIIDFLENLNNKIKVFIIPGNWENLDTIQKMNESGLNIDEKLVKFHDTIFIGLGGSNKTPICSPNEYSEDEIYERFIKILKNEKTDVKNNFILLSHVPPKDTMADRCEAGHVGSSAVRKIIEEFKPVLCACGHVHESRSIDKIGNTLIVNPSSTGFFIYDTKTKNLEIHDL” as the sequence, how does the “soluble on expression in E. coli” value read?
**A.** Its value is “not soluble”.

**Q.** For “MGSDKIHHHHHHMRLPPLKALPVFEAAARLNSFSAASEELAITQSAVSHQIKQLETYLGERLFWRSGRRVTLTDEGRQYFDAIGSALLQIERASEQLLGHEESRLRLSVFSSFAVRWLVPRLPDLQRLHPQIDLALEMSSENPVLSDRVADCFITIHRDSRAYSYDLLYEERLFPVCSQDYWQRMRRELGRDVEPERRDEQPVSPGEMAGFPLLSTHSIFDRPAGDWEAWYSAAGELMPTGTRVQHFSHMLLALEAARFHQGIALTNDYMLSTRKDSEDFVRLPTHSVVTGDKFYFAWKTSRRRERGIQTLRRWLVDEAIRGGLRGE”, which “soluble on expression in E. coli” value is on record?
**A.** The value was “not soluble”.

**Q.** For “MGSDKIHHHHHHMRRQLNGQMFVWLHVFACAARHLSFTRCAEELHITPGAVSQQMRQLEERLGYRLFLRRARGVELSAEGQRLAQTVAEAYGSIEAELLRLDAGEIRGTLRVRSIPSFLAKWLTPRLPRFQQRYPDIELRLVAEDSAQALTPGDFDLAIDLNDGSYPGMLSTPLLDEQIFPVCSPALLRGRPPLHGPADLAHYPLLHDITAWRGSSEYAEWEFYLEGIGAAGLDVRRGHTFNRNHLTIEAAIAGIGVAIARRTLLNDELERGALIVPFGVPIANHKRYVVHYPPGGLNQPGARAVHDWLVEEARGFRVLHPLNKE”, which “soluble on expression in E. coli” value is on record?
**A.** The value was “not soluble”.

**Q.** For “MGSDKIHHHHHHMRRSSVFAGSDGQLDLFVGAGSNIAARDAQDLMAWPFFSLAKTKRVRPIDFRMGEVSILVEATAEHGMATIWDADVLIWVASQIVEARDCGRSTSRLIAATPHEILSFTRRGTGKASYERLKAGLDRLQSTTVATSIRQPHQRRRHRFSWINEWRECLDSSGRALGIEMIVPDWFYEGVLDAALVLTIDRAYFGLTGGLERWLYRIVRKHGGKQKGGWSFDVAHLHLKSGALSPLKRFAFELRDIVRRQPLPGYRLELEHALGRERLSFVCIPEDSFDAAMRRLGYSGVDNP”, which “soluble on expression in E. coli” value is on record?
**A.** The value was “not soluble”.

**Q.** For “MGSDKIHHHHHHMRSLSEFIENSQDKREIQRALAVKMLLEGYTHVAIQSILDVSSGFISKWKKAFFTFGVEGLKLRYKGSQGFLNPQQRYCVIEWLKTKEKWNLSELEYEIASSYGVVFESKQSYYDLFDAAGISWKKTQAHNPKYDEELVASKKKEICELLETRRSEIESGKLVVFMVDECHLLWGDICGYVWGKTSERISVPVVNARDKQTYFGAIDYKTHEFITYAAKKGDSQNMINFLEYLQSQRPGANLLIIWDGASYHRSNAIQDYLDSLNRQLEQEQWLITCKRFAPNAPQQNPVEDIWLQAKKLIREFYFFCHSFSVVKALFELAVNGQIFDFPKLNEYGNFSQMI”, which “soluble on expression in E. coli” value is on record?
**A.** The value was “not soluble”.

**Q.** With “MGSDKIHHHHHHMRTPVPRVAAIHDLSGFGRTSLTVAMPVLSSMGVQVCPLPTAVLSTHTSGFENFSFVDLTEQMHSILDHWQSLNLKFDAVYSGFLGSPEQVDIVARCIDMFRTPDGLAVVDPVMGDNGEMEPTMTLEMVHRMRWLVTKADIITPNFTEAAFLLDEKYTTEATVSTVKDWLRRLTAMGPSIAIITSVPVHGDERRSAVMAYNRRHDRFWKVDCSYIPAHYPGTGDTFASVVTGALLQGDSLPIAMDRAVQFVTMGIRATFGHNLPSRDGILLERVLDTLRAPVTSSSFELLDNDGEQCACR” as the sequence, how does the “soluble on expression in E. coli” value read?
**A.** Its value is “not soluble”.

**Q.** For “MGSDKIHHHHHHMRVDHSTQPVAVLQEPSIVLVIQGVKRAYIGKDIFKFQQGQCLFISIAIPFDCDTLVEREPMLAIAIKFEPQMMAELATKMDKEHRPLIEDFDNKEIKLSCGLNIIEMNSVISDVALRLLNLLRSKQDTAILGEQVKRELIYRVLQAGGSDFIQNLSAIMSRSGVIYTICEIIQRDYYRNLTVQELAKQAGMSVSLFHQAFKKVTNYSPLQYIKITRLHKARDLILNNQMGVAEAAYEVGYVSASQFSREFKRLFGVPPKLSTN”, which “soluble on expression in E. coli” value is on record?
**A.** Its value is “not soluble”.

**Q.** With “MGSDKIHHHHHHMRVLPFLLPLIPVLLATTITDLPELVVVTVATENTDGLKRLLESAKAFDINIEVLGLGEKWNGGDTRIEQGGGQKIRILSDWIEKYKDASDTMIMFVDAYDVVFNADSTTILRKFFEHYSEKRLLFGAEPFCWPDQSLAPEYPIVEFGKRFLNSGLFMGYGPEMHKILKLKSVEDKDDDQLYYTMIYLDEKLRKELNMDLDSMSKIFQNLNGVIEDVELQFKEDGTPEAYNAAYNTKPLIVHGNGPSKSHLNYLGNYLGNRWNSQLGCRTCGLEVKESEEVPLIALNLFISKPIPFIEEVLQKIAEFDYPKEKIALYIYNNQPFSIKNIQDFLQKHGKSYYTKRVINGVTEIGDREARNEAIEWNKARNVEFAFLMDGDAYFSEPKVIKDLIQYSKTYDVGIIAPMIGQPGKLFTNFWGAIAANGYYARSEDYMAIVKGNRVGYWNVPFITSAVLFNKEKLEAMKDAYSYNKNLDPDMSMCKFARDNGHFLYIDNEKYYGFLIVSDEYAETVTEGKWHPEMWQIFENRELWEARYIHPGYHKIMEPEHVVDQACPDVYDFPLMSERFCEELIEEMEGFGRWSDGSNNDKRLAGGYENVPTRDIHMNQVGFERQWLYFMDTYVRPVQEKTFIGYYHQPVESNMMFVVRYKPEEQPSLRPHHDASTFSIDIALNKKGRDYEGGGVRYIRYNCTVPADEVGYAMMFPGRLTHLHEGLATTKGTRYIMVSFINP” as the sequence, how does the “soluble on expression in E. coli” value read?
**A.** Its value is “not soluble”.

**Q.** For “MGSDKIHHHHHHMRYDIVIIGGAIVGSSIAYYLREEGFSGSIALIERDPQFAHAATTLSMASIRQQFSIPENIRLSQFTLKLFRRLKETFGTDADIGFREGGYLILAGENGLPVLKANHDAQVAEGADIVLEDAEQLTRRFAWLSAEGISAGAYGRTGEGWFDAHAMLMLFRKALRDKKIDFIAASVTGIARDGDRVTGVSLDNGQTLEAGIVVNAAGPNAGKVAALAGLALPVEPRKRNVFVFEAREKYADMPLLVDPSGIYVRPEGSVYLTGGAEPEEGDGPADPSDFEVDWPLFEEVIWPVLATRIPAFEAIKATRAWAGHYDYNTLDQNAVIGPHPEVGNFIFANGFSGHGLQQAPAVGKALAEFLVHGGYRTIDCSAFGYGRVAEGRAFRELNVI”, which “soluble on expression in E. coli” value is on record?
**A.** The value was “not soluble”.

**Q.** With “MGSDKIHHHHHHMRYSPESLLAFITTVDAGSFSAAARRLHKSQSTISAAIANLEADLGLTLFDRAGHQPVLTLAGRKVLSHVQAILSASEELDELAIRLADHIEPRLTFVLSDIWQATHYEPVIQRFAHNFPDIEFECLVAEGDDVIDLLQMDRAHVGLLRAQTDYPPDIAAARLQVKTEMAVFVSVAHPLATEKTVTRSQLATVRQLYLNTYKRSDRLQPEGIVWSAPSYLMLLEMAQQGHGWSSLPRWLVAQYDRQKLVELPVSGWPQWIDVDVVWSKPHPPGPAGLWMIDNLLAQQESTPP” as the sequence, how does the “soluble on expression in E. coli” value read?
**A.** The value was “not soluble”.

**Q.** With “MGSDKIHHHHHHMSCLVLPLVSVGNIPQLSIDWLLNSQANEWEYLEALDSKYLVEFVGPLDRPEDGSDSLYKDADMKYSSALEVFYNKKRGLFAIQQRTPLVSVNYLNNFIVEIILPFLSKYNISEICIWDSLYAMEDENGVIVRPQEVYSLGEFYFDDEAELLSNLHLNDQESMVNNWLHFTPTSFQDKISVDQPIFKILFQILNASQRPKALRSIKYCSCLANEGDNSLDSQQFLQWIISQKVIKNAPPIVKFVRPISWQGAYGMADARDKFVDLYN” as the sequence, how does the “soluble on expression in E. coli” value read?
**A.** The value was “not soluble”.

**Q.** With “MGSDKIHHHHHHMSEGCAFAYPFIFVGANMKKIAFIGECMIELNGKPFGEMWQSYGGDTLNSATYLSRMSSPNDIQVYYVSALGSDNLSEQMRMHWQADGVNTDWVLKDENHQPGLYLIQLDEQGERTFLYWRNQSAAHYMVQHHDFSQVLSALEQVDMIYLSGISLAILPKNDRTFLLEQLIKLAKKGVQISFDSNFRPKLWDSFQEAQDCYLQLLPCVSLALVTFDDEQLLWNDTNEPATLTRLHQIGIPKVVVKCGRNGAIFSDSQTSQYGQVVPKPISNVVDTTSAGDSFNAGFLNGYLRNKPLDICCRQGNYVAGIVIQHKGAIIDKHATSHLQSEFN” as the sequence, how does the “soluble on expression in E. coli” value read?
**A.** The value was “not soluble”.
